# Source: patent US20110269161
# Columns and labels:
# [1] = system: T1, peptide C6 (TKRSGSVYEPPFR), derived from phosphorylase b kinase regulatory subunit beta (Ser26)
# T1 sequence: TKRSGSVYEPPFR
# [2] = system: T2, peptide F6 (RIRTQSFSLQPFR), derived from nitric-oxide synthase, endothelial (Ser1176)
# T2 sequence: RIRTQSFSLQPFR
# [3] = system: T3, peptide A6 (RPGPQSPGSPPFR), derived from neutrophil cytosol factor 1
# T3 sequence: RPGPQSPGSPPFR
# [4] = system: T4, peptide B11 (LKLSPSPSSRPFR), derived from lamin-b1 (Ser392)
# T4 sequence: LKLSPSPSSRPFR
# [5] = system: T5, peptide C2 (IPTGTTPQRKPFR), derived from kinesin-like protein kif11 (Thr927)
# T5 sequence: IPTGTTPQRKPFR
# [6] = system: seven peptides sharing a common motif of [S/T]-Pro and clear upregulation by G2/M arrest
# [7] = system: peptide H5 (EYDRLYEEYTPFR), derived from Phosphatidylinositol 3-kinase regulatory subunit p85α(Tyr-467)/p55γ(Tyr-199)
substance,measurement,setting,value
"Akt1 (full length), purified human active kinase","in vitro peptide phosphorylation by purified kinase (KAYAK, LC-MS)",[1],this peptide was not significantly phosphorylated by Akt
same,"peptide phosphorylation, 100 µM peptide reacted individually",[2],both RSK and Akt demonstrated strong phosphorylation
"Cdc2/cyclin B1 (full length), purified complex",phosphorylation by purified kinase complex (KAYAK profiling of 90 peptides),[3],purified Cdc2/Cyclin B1 complex phosphorylated all 7 peptides along with 4 other up-regulated peptides
same,phosphorylation by purified kinase complex (KAYAK profiling of 90 peptides),[4],purified Cdc2/Cyclin B1 complex phosphorylated all 7 peptides along with 4 other up-regulated peptides
same,phosphorylation by purified kinase complex (KAYAK profiling of 90 peptides),[5],purified Cdc2/Cyclin B1 complex phosphorylated all 7 peptides along with 4 other up-regulated peptides
same,phosphorylation by purified kinase complex (KAYAK profiling of 90 peptides),[6],purified Cdc2/Cyclin B1 complex phosphorylated all 7 peptides along with 4 other up-regulated peptides
"Src (full length), purified human active kinase",in vitro kinase reaction with purified kinase,[7],robust phosphorylation by Src but not EGFR
